Results as given in PMC7065454 (Molecular cell, 2020).
Numbering of substitutions follows the chain as printed. In names and notes the source's numbering stands. Several values for one entry are separate records, joined by “and”; a condition that tells them apart may be missing. Identical values can stand only once. Like-named read-outs stand apart in the source and are kept apart here.

Experiments:
Ec NucC [1] = biological target: T1, Ec NucC (Escherichia coli, UniProt D7Y2H5); test: ITC; format: binding
Ec NucC [2] = biological target: T1, Ec NucC; test: ITC; format: binding; remark: listed apart in the source
Pa NucC = Pa NucC (Pseudomonas aeruginosa, UniProt P0DTF8, D73N); test: co-crystal structure at […] Å; format: binding
Ec NucC [3] = biological target: T1, Ec NucC; test: ITC; format: binding; remark: listed apart in the source
Vm NucC = biological target: T2, Vm NucC (Vibrio metoecus, UniProt P0DUD6); test: plasmid digestion assay, weak activation; format: biochemical
T2 sequence (P0DUD6 1-245): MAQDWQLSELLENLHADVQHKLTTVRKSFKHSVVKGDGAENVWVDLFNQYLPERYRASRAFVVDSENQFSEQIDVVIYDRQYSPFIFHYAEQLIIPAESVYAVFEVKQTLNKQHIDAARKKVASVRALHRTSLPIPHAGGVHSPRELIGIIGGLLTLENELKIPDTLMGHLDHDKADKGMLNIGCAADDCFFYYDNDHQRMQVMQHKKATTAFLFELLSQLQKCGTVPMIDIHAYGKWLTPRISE

SEC-MALS [4] = biological target: the molecule itself; test: SEC-MALS
crystal structure = biological target: the molecule itself; test: crystal structure
SEC-MALS [5] = biological target: the molecule itself; test: SEC-MALS; remark: listed apart in the source

Nc1ncnc2c1ncn2[C@@H]1O[C@@H]2COP(=O)(O)O[C@H]3[C@@H](O)[C@H](n4cnc5c(N)ncnc54)O[C@@H]3COP(=O)(O)O[C@H]2[C@H]1O [3′,3′ cyclic di-AMP]
Kd (Ec NucC [1]): 2600 nM

Nc1ncnc2c1ncn2[C@@H]1O[C@H](COP(=O)(O)O[C@H]2[C@@H](O)[C@H](n3cnc4c(N)ncnc43)O[C@@H]2COP(=O)(O)O)[C@@H](O)[C@H]1O [5′-pApA]
Kd (Ec NucC [2]): 4400 nM

Nc1ncnc2c1ncn2[C@@H]1O[C@@H]2COP(=O)(O)O[C@H]3[C@@H](O)[C@H](n4cnc5c(N)ncnc54)O[C@@H]3COP(=O)(O)O[C@H]3[C@@H](O)[C@H](n4cnc5c(N)ncnc54)O[C@@H]3COP(=O)(O)O[C@H]2[C@H]1O [cAAA]
co-crystal structure at 1.45 Å; SEC-MALS hexamer assembly of Pa NucC (Pa NucC): We obtained crystals of P. aeruginosa ATCC27853 NucC D73N mutant bound to cAAA | Kd (Ec NucC [3]): 700 nM

Nc1nc2c(ncn2[C@@H]2O[C@@H]3COP(=O)(O)O[C@H]4[C@@H](O)[C@H](n5cnc6c(N)ncnc65)O[C@@H]4COP(=O)(O)O[C@H]4[C@@H](O)[C@H](n5cnc6c(N)ncnc65)O[C@@H]4COP(=O)(O)O[C@H]3[C@H]2O)c(=O)[nH]1 [cAAG]
plasmid digestion assay, weak activation (Vm NucC): weakly activated by both cAA and cAAG

Nc1ncnc2c1ncn2[C@@H]1O[C@@H]2COP(=O)(O)O[C@H]3[C@@H](O)[C@H](n4cnc5c(N)ncnc54)O[C@@H]3COP(=O)(O)O[C@H]2[C@H]1O [cAA]
plasmid digestion assay, weak activation (Vm NucC): weakly activated by both cAA and cAAG

B1: E. coli MS115-1 NucC (wild type) (enzyme, UniProt D7Y2H5 1-241, looked up)
chain: MSDWSLSQLFASLHEDIQLRLGTARKAFQHPGAKGDASEGVWIEMLDTYLPKRYQAANAFVVDSLGNFSDQIDVVVFDRQYSPFIFKFNEQIIVPAESVYAVFEAKQSASADLVAYAQRKVASVRRLHRTSLPIPHAGGTYPAKPLIPILGGLLTFESDWSPALGMSFDKALNGDLSDGRLDMGCVASHGHFYFNNIDSKFNFEHGNKPATAFLFRLIAQLQFSGTVPMIDIDAYGKWLAN
stoichiometry N (SEC-MALS [4]): 3 | stoichiometry N (crystal structure): 6

B2: Ec NucC W4A mutant with D73N (SEC-MALS sample) (enzyme, E. coli MS115-1, UniProt D7Y2H5 1-241, looked up)
chain: B1 chain with W4A, D73N
binding result (SEC-MALS [5]): binds

B3: Ec NucC L19A mutant with D73N (SEC-MALS sample) (enzyme, E. coli MS115-1, UniProt D7Y2H5 1-241, looked up)
chain: B1 chain with L19A, D73N
binding result (SEC-MALS [5]): binds

B4: Vibrio metoecus sp. RC341 NucC (enzyme, UniProt P0DUD6 1-245, looked up)
chain: T2 sequence (P0DUD6 1-245)
stoichiometry N (SEC-MALS [4]): 3 and 6

B5: P. aeruginosa ATCC 27853 NucC (wild type) (enzyme)
chain: MSQWSLSQLLSSLHEDIQQRLSVVRKTFGHPGTKGDASENVWIDMLDTYLPKRYQAAKAHVVDSLGNFSQQIDVVVFDRQYSPFIFTYENETIIPAESVYAVFEAKQTADAGLVAYAQEKVASVRRLHRTSLPIPHAGGTYPAKPLIPILGGLLTFESEWSPALGPSMDKALNANLTEGRLDIGCVAAHGHFFYDQASGAYSYTNENKPATAFLFKLIAQLQFSGTVPMIDVEAYGQWLTK
stoichiometry N (SEC-MALS [5]): 6 | stoichiometry N (SEC-MALS [4]): 3

B6: Ec NucC L19D mutant with D73N (SEC-MALS sample) (enzyme, E. coli MS115-1, UniProt D7Y2H5 1-241, looked up)
chain: B1 chain with L19D, D73N
stoichiometry N (SEC-MALS [5]): 3
